# Results published in paper PMC6983407.
# Tests used:
# [1] = molecular target: recombinant FIPV-UU4 S protein (ectodomain of the spike protein of serotype I feline infectious peritonitis virus strain UU4, fused with the trimerization domain of T4 fibritin) (feline infectious peritonitis virus, serotype I, strain UU4 | bacteriophage T4); test: cryo-EM structure
# [2] = molecular target: recombinant FIPV-UU4 S protein (ectodomain of the spike protein of serotype I feline infectious peritonitis virus strain UU4, fused with the trimerization domain of T4 fibritin) (feline infectious peritonitis virus, serotype I, strain UU4 | bacteriophage T4); test: native gel or EMSA
substance,measurement,setting,value
"recombinant FIPV-UU4 S protein (ectodomain of the spike protein of serotype I feline infectious peritonitis virus strain UU4, fused with the trimerization domain of T4 fibritin) (natural protein)",stoichiometry N,[1],3
same,stoichiometry N,[2],3
